Experimental data as given in US10941182 (Amgen, dated 2021).
Starred links: 1 amine or outer side, 2 acyl side, 3 side chain; linkers in the order of their positions; H or OH if unused. Non-standard residues stand in square brackets, D forms with d. *: point of attachment. AC4Abu = α-carboxy-4-aminobutyric acid, O=C(C(CCN[*:1])C(=O)[*:3])[*:2]; Oic = O=C(O)[C@@H]1C[C@@H]2CCCC[C@@H]2N1; Phe(4-Cl) = N[C@@H](Cc1ccc(Cl)cc1)C(=O)O; γGlu = O=C(O)[C@H](CCC(=O)[*:2])N[*:1]; 2Nal = N[C@@H](Cc1ccc2ccccc2c1)C(=O)O; NMeR = CN[C@@H](CCCNC(=N)N)C(=O)O; Tridecanoyl = CCCCCCCCCCCCC(=O)*; Cha = N[C@@H](CC1CCCCC1)C(=O)O; αMeL = CC(C)C[C@](C)(N)C(=O)O; Tle = CC(C)(C)[C@H](N)C(=O)O; β3hP = O=C(O)C[C@@H]1CCCN1; β3hS = N[C@@H](CO)CC(=O)O; Nle = CCCC[C@H](N)C(=O)O; AEEA = NCCOCCOCC(=O)O; Aib = CC(C)(N)C(=O)O; BLeu = β-leucine

T1: human APJ receptor (human, UniProt P35414 1-380)
T1 sequence (looked up): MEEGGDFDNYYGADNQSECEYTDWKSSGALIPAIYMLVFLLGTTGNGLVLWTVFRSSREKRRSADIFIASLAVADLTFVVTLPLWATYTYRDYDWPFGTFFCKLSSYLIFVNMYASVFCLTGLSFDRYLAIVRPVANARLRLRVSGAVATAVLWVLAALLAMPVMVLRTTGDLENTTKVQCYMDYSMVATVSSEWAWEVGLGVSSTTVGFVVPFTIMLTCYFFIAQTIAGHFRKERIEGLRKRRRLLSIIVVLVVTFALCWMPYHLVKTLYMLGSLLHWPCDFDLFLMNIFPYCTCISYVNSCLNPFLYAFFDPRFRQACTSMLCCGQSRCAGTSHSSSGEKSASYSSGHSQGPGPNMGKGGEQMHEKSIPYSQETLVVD

T2: rat APJ receptor (rat, UniProt Q9JHG3 1-377)
T2 sequence (looked up): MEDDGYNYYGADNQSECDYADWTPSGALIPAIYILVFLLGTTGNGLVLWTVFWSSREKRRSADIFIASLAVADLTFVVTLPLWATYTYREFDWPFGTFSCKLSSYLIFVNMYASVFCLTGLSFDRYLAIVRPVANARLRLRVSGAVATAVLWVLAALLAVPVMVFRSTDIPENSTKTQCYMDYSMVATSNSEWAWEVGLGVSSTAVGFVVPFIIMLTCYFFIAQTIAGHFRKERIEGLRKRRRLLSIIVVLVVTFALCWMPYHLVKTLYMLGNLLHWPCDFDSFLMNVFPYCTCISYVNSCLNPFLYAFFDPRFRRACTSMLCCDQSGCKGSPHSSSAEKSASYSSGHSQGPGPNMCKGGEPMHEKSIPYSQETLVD


Tests used:
human APJ receptor = molecular target: T1, human APJ receptor; assay: cell-based or functional assay
rat APJ receptor = molecular target: T2, rat APJ receptor; assay: cell-based or functional assay

| Binder | EC50 Human APJ Receptor (GTPγS assay) (human APJ receptor) [nM] | EC50 Rat APJ Receptor (GTPγS assay) (rat APJ receptor) [nM] |
| --- | --- | --- |
| Tridecanoyl-[γGlu][AEEA][AEEA]QRP[NMeR][BLeu]SHKG[Oic][Nle]P[Phe(4-Cl)]-OH [Apelin polypeptide SEQ ID NO: 391] | 0.565 | 1.5 |
| Tridecanoyl-[γGlu][AEEA][AEEA][dQ]RP[NMeR][αMeL]SHKG[Oic][Nle]P[Phe(4-Cl)]-OH (SMILES CCCCCCCCCCCCC(=O)N[C@@H](CCC(=O)NCCOCCOCC(=O)NCCOCCOCC(=O)N[C@H](CCC(N)=O)C(=O)N[C@@H](CCCNC(=N)N)C(=O)N1CCC[C@H]1C(=O)N(C)[C@@H](CCCNC(=N)N)C(=O)N[C@@](C)(CC(C)C)C(=O)N[C@@H](CO)C(=O)N[C@@H](Cc1c[nH]cn1)C(=O)N[C@@H](CCCCN)C(=O)NCC(=O)N1[C@H](C(=O)N[C@@H](CCCC)C(=O)N2CCC[C@H]2C(=O)N[C@@H](Cc2ccc(Cl)cc2)C(=O)O)C[C@@H]2CCCC[C@@H]21)C(=O)O) [Apelin polypeptide SEQ ID NO: 386] | 0.0934 | 0.261 |
| Tridecanoyl-[γGlu][AEEA][AEEA]QRP[NMeR][αMeL]SHKG[Oic][Nle]P[Phe(4-Cl)]-OH (SMILES CCCCCCCCCCCCC(=O)N[C@@H](CCC(=O)NCCOCCOCC(=O)NCCOCCOCC(=O)N[C@@H](CCC(N)=O)C(=O)N[C@@H](CCCNC(=N)N)C(=O)N1CCC[C@H]1C(=O)N(C)[C@@H](CCCNC(=N)N)C(=O)N[C@@](C)(CC(C)C)C(=O)N[C@@H](CO)C(=O)N[C@@H](Cc1c[nH]cn1)C(=O)N[C@@H](CCCCN)C(=O)NCC(=O)N1[C@H](C(=O)N[C@@H](CCCC)C(=O)N2CCC[C@H]2C(=O)N[C@@H](Cc2ccc(Cl)cc2)C(=O)O)C[C@@H]2CCCC[C@@H]21)C(=O)O) [Apelin polypeptide SEQ ID NO: 385] | 0.0688 | 0.17 |
| Tridecanoyl-[AC4Abu][AEEA][AEEA]QRP[NMeR][Cha]SHKG[Aib][Nle]P[Phe(4-Cl)]-OH (SMILES CCCCCCCCCCCCC(=O)NCCC(C(=O)O)C(=O)NCCOCCOCC(=O)NCCOCCOCC(=O)N[C@@H](CCC(N)=O)C(=O)N[C@@H](CCCNC(=N)N)C(=O)N1CCC[C@H]1C(=O)N(C)[C@@H](CCCNC(=N)N)C(=O)N[C@@H](CC1CCCCC1)C(=O)N[C@@H](CO)C(=O)N[C@@H](Cc1c[nH]cn1)C(=O)N[C@@H](CCCCN)C(=O)NCC(=O)NC(C)(C)C(=O)N[C@@H](CCCC)C(=O)N1CCC[C@H]1C(=O)N[C@@H](Cc1ccc(Cl)cc1)C(=O)O) [Apelin polypeptide SEQ ID NO: 414] | 3.39 | 3.79 |
| Tridecanoyl-[γGlu][AEEA][AEEA]QRP[NMeR][αMeL]SHKG[Oic][Nle][Phe(4-Cl)]-OH (SMILES CCCCCCCCCCCCC(=O)N[C@@H](CCC(=O)NCCOCCOCC(=O)NCCOCCOCC(=O)N[C@@H](CCC(N)=O)C(=O)N[C@@H](CCCNC(=N)N)C(=O)N1CCC[C@H]1C(=O)N(C)[C@@H](CCCNC(=N)N)C(=O)N[C@@](C)(CC(C)C)C(=O)N[C@@H](CO)C(=O)N[C@@H](Cc1c[nH]cn1)C(=O)N[C@@H](CCCCN)C(=O)NCC(=O)N1[C@H](C(=O)N[C@@H](CCCC)C(=O)N[C@@H](Cc2ccc(Cl)cc2)C(=O)O)C[C@@H]2CCCC[C@@H]21)C(=O)O) [Apelin polypeptide SEQ ID NO: 389] | 0.196 | 0.365 |
| XXXQRPRLSHKGPXPF ({TDA}[AC4Abu][Aeea][Aeea]QRP[NMeArg][BhLeu]SHKGP[Nle]P[4-Cl-F]{COOH}) [Apelin polypeptide SEQ ID NO: 422] | 0.169 | 0.197 |

Continued, values first:

| EC50 Human APJ Receptor (GTPγS assay) (human APJ receptor) [nM] | EC50 Rat APJ Receptor (GTPγS assay) (rat APJ receptor) [nM] | Binder |
| --- | --- | --- |
| 0.0204 | 0.092 | Tridecanoyl-[γGlu][AEEA][AEEA]QRP[NMeR][αMeL]SHKGP[Nle]P[2Nal]-OH (SMILES CCCCCCCCCCCCC(=O)N[C@@H](CCC(=O)NCCOCCOCC(=O)NCCOCCOCC(=O)N[C@@H](CCC(N)=O)C(=O)N[C@@H](CCCNC(=N)N)C(=O)N1CCC[C@H]1C(=O)N(C)[C@@H](CCCNC(=N)N)C(=O)N[C@@](C)(CC(C)C)C(=O)N[C@@H](CO)C(=O)N[C@@H](Cc1c[nH]cn1)C(=O)N[C@@H](CCCCN)C(=O)NCC(=O)N1CCC[C@H]1C(=O)N[C@@H](CCCC)C(=O)N1CCC[C@H]1C(=O)N[C@@H](Cc1ccc2ccccc2c1)C(=O)O)C(=O)O) [Apelin polypeptide SEQ ID NO: 472] |
| 0.583 | 1.4 | Tridecanoyl-[γGlu][AEEA][AEEA][dQ]RP[NMeR][Cha]SHK[Tle][Oic][Nle][Aib][Phe(4-Cl)]-OH (SMILES CCCCCCCCCCCCC(=O)N[C@@H](CCC(=O)NCCOCCOCC(=O)NCCOCCOCC(=O)N[C@H](CCC(N)=O)C(=O)N[C@@H](CCCNC(=N)N)C(=O)N1CCC[C@H]1C(=O)N(C)[C@@H](CCCNC(=N)N)C(=O)N[C@@H](CC1CCCCC1)C(=O)N[C@@H](CO)C(=O)N[C@@H](Cc1c[nH]cn1)C(=O)N[C@@H](CCCCN)C(=O)N[C@H](C(=O)N1[C@H](C(=O)N[C@@H](CCCC)C(=O)NC(C)(C)C(=O)N[C@@H](Cc2ccc(Cl)cc2)C(=O)O)C[C@@H]2CCCC[C@@H]21)C(C)(C)C)C(=O)O) [Apelin polypeptide SEQ ID NO: 543] |
| 0.38 | 0.975 | Tridecanoyl-[γGlu][AEEA][AEEA][dQ]RP[NMeR][Cha]SAKG[Oic][Nle][Aib][Phe(4-Cl)]-OH (SMILES CCCCCCCCCCCCC(=O)N[C@@H](CCC(=O)NCCOCCOCC(=O)NCCOCCOCC(=O)N[C@H](CCC(N)=O)C(=O)N[C@@H](CCCNC(=N)N)C(=O)N1CCC[C@H]1C(=O)N(C)[C@@H](CCCNC(=N)N)C(=O)N[C@@H](CC1CCCCC1)C(=O)N[C@@H](CO)C(=O)N[C@@H](C)C(=O)N[C@@H](CCCCN)C(=O)NCC(=O)N1[C@H](C(=O)N[C@@H](CCCC)C(=O)NC(C)(C)C(=O)N[C@@H](Cc2ccc(Cl)cc2)C(=O)O)C[C@@H]2CCCC[C@@H]21)C(=O)O) [Apelin polypeptide SEQ ID NO: 530] |
| 1.49 | 1.28 | Tridecanoyl-[γGlu][AEEA][AEEA]QRP[NMeR][Cha]S[Tle]KG[Oic][Nle]P[Phe(4-Cl)]-OH (SMILES CCCCCCCCCCCCC(=O)N[C@@H](CCC(=O)NCCOCCOCC(=O)NCCOCCOCC(=O)N[C@@H](CCC(N)=O)C(=O)N[C@@H](CCCNC(=N)N)C(=O)N1CCC[C@H]1C(=O)N(C)[C@@H](CCCNC(=N)N)C(=O)N[C@@H](CC1CCCCC1)C(=O)N[C@@H](CO)C(=O)N[C@H](C(=O)N[C@@H](CCCCN)C(=O)NCC(=O)N1[C@H](C(=O)N[C@@H](CCCC)C(=O)N2CCC[C@H]2C(=O)N[C@@H](Cc2ccc(Cl)cc2)C(=O)O)C[C@@H]2CCCC[C@@H]21)C(C)(C)C)C(=O)O) [Apelin polypeptide SEQ ID NO: 438] |
| 5.6 | 10.1 | Tridecanoyl-[γGlu][AEEA][AEEA]QRP[NMeR][Cha]SH[AMeK]G[Oic][Nle]P[Phe(4-Cl)]-OH [Apelin polypeptide SEQ ID NO: 444] |
| 0.0832 | 0.298 | XXXQRPRLSHKGXXPF ({TDA}[AC4Abu][Aeea][Aeea]QRP[NMeArg][aMeLeu]SHKG[Pip][Nle][aMePro][4-Cl-F]{COOH}) [Apelin polypeptide SEQ ID NO: 605] |
| 0.102 | 0.421 | XXXQRPRLSHKGXXPF ({TDA}[AC4Abu][Aeea][Aeea]qRP[NMeArg][aMeLeu]SHKG[Pip][Nle][aMePro][4-Cl-F]{COOH}) [Apelin polypeptide SEQ ID NO: 555] |
| 0.867 | 2.83 | Tridecanoyl-[γGlu][AEEA][AEEA][dQ]RP[NMeR][αMeL]SHKG[Oic][Nle][β3hP][Phe(4-Cl)]-OH (SMILES CCCCCCCCCCCCC(=O)N[C@@H](CCC(=O)NCCOCCOCC(=O)NCCOCCOCC(=O)N[C@H](CCC(N)=O)C(=O)N[C@@H](CCCNC(=N)N)C(=O)N1CCC[C@H]1C(=O)N(C)[C@@H](CCCNC(=N)N)C(=O)N[C@@](C)(CC(C)C)C(=O)N[C@@H](CO)C(=O)N[C@@H](Cc1c[nH]cn1)C(=O)N[C@@H](CCCCN)C(=O)NCC(=O)N1[C@H](C(=O)N[C@@H](CCCC)C(=O)N2CCC[C@H]2CC(=O)N[C@@H](Cc2ccc(Cl)cc2)C(=O)O)C[C@@H]2CCCC[C@@H]21)C(=O)O) [Apelin polypeptide SEQ ID NO: 554] |
| 0.588 | 3.14 | Tridecanoyl-[γGlu][AEEA][AEEA][dQ]RP[NMeR][Cha][β3hS]HKG[Oic][Nle][Aib][Phe(4-Cl)]-OH (SMILES CCCCCCCCCCCCC(=O)N[C@@H](CCC(=O)NCCOCCOCC(=O)NCCOCCOCC(=O)N[C@H](CCC(N)=O)C(=O)N[C@@H](CCCNC(=N)N)C(=O)N1CCC[C@H]1C(=O)N(C)[C@@H](CCCNC(=N)N)C(=O)N[C@@H](CC1CCCCC1)C(=O)N[C@@H](CO)CC(=O)N[C@@H](Cc1c[nH]cn1)C(=O)N[C@@H](CCCCN)C(=O)NCC(=O)N1[C@H](C(=O)N[C@@H](CCCC)C(=O)NC(C)(C)C(=O)N[C@@H](Cc2ccc(Cl)cc2)C(=O)O)C[C@@H]2CCCC[C@@H]21)C(=O)O) [Apelin polypeptide SEQ ID NO: 500] |
